Biological target: T1, Retinoic acid receptor alpha (RAR-alpha) (UniProt P10276)
T1 sequence: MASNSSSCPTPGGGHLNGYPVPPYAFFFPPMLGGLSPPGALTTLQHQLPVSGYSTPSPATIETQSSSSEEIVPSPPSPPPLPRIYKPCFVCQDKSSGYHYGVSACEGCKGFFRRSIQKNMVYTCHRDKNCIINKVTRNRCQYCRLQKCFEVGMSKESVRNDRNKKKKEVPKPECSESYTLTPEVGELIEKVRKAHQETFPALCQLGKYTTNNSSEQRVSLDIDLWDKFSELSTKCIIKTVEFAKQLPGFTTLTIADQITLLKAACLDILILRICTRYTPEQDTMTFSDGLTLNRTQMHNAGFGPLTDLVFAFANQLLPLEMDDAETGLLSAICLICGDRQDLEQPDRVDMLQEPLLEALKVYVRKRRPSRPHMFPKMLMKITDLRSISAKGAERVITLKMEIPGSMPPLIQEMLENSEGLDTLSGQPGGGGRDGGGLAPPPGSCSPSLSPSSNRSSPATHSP
Assay: cell_activity

Substance | activity (fold induction) (CV-1 cells, 10^-6 M retinoic acid, reverse orientation 9-fold) | activity (fold induction) (same as empty DMTV-LUC (2-fold))
183 bp SmaI fragment of RARb promoter | 10 | 
NR oligo (45 bp located 24 bp 3' of bRE1) |  | 2

Reference: patent US5091518
